B1: peptide HD2 (from tick evasin EVA4) / CCL22 (biotinylated, synthetic) (parent complex)
chain 1: EEDDYTAYAPLTCYFT
chain 2: GPYGANMEDSVCCRDYVRYRLPLRVVKHFYWTSDSCPRPGVVLLTFRDKEICADPRVPWVKMILNKLSQ

In this assay the parent is B1.
Regarding chain 1 C13H, the enrichment is -3.89 log2 (difference from the parental peptide).

In the case of chain 1 C13L, the enrichment is -6.36 log2 (difference from the parental peptide).

In the case of chain 1 C13F, the enrichment is -6.63 log2 (difference from the parental peptide).

As for chain 1 C13G, the enrichment is -5.34 log2 (difference from the parental peptide).

chain 1 C13I: the enrichment was -3.42 log2 (difference from the parental peptide).

In the case of chain 1 C13W, the enrichment was -3.31 log2 (difference from the parental peptide).

As to chain 1 C13P, the enrichment was -6.43 log2 (difference from the parental peptide).

As for chain 1 C13Y, the enrichment is -2.53 log2 (difference from the parental peptide).

For chain 1 Y8C, the enrichment is -9.68 log2 (difference from the parental peptide).

On to chain 1 Y8A, for which the enrichment is -7.77 log2 (difference from the parental peptide).

With chain 1 Y8W, the enrichment was -2.54 log2 (difference from the parental peptide).

For chain 1 Y8F, the enrichment is -0.0331 log2 (difference from the parental peptide).

Turning to chain 1 Y14R, the enrichment is -0.04 log2 (difference from the parental peptide).

As for chain 1 Y14E, the enrichment is -6.44 log2 (difference from the parental peptide).

Take chain 1 Y14L: the enrichment is -2.35 log2 (difference from the parental peptide).

On to chain 1 Y14M, for which the enrichment was -1.86 log2 (difference from the parental peptide).

Take chain 1 Y14I: the enrichment was -0.881 log2 (difference from the parental peptide).

With chain 1 Y14W, the enrichment was -0.554 log2 (difference from the parental peptide).

As for chain 1 Y14Q, the enrichment was -0.26 log2 (difference from the parental peptide).

With chain 1 Y14T, the enrichment was 1.08 log2 (difference from the parental peptide).

In the case of chain 1 Y14H, the enrichment was 2.15 log2 (difference from the parental peptide).

Regarding chain 1 Y14P, the enrichment was -3.33 log2 (difference from the parental peptide).

As for chain 1 Y14F, the enrichment is -0.133 log2 (difference from the parental peptide).

With chain 1 Y14C, the enrichment was -2.09 log2 (difference from the parental peptide).

Consider chain 1 Y14S, for which the enrichment is 0.0467 log2 (difference from the parental peptide).

In the case of chain 1 A7Q, the enrichment is 2.25 log2 (difference from the parental peptide).

As for chain 1 A7V, the enrichment is -3.51 log2 (difference from the parental peptide).

As for chain 1 A7G, the enrichment is 0.519 log2 (difference from the parental peptide).

On to chain 1 A7Y, for which the enrichment was -1.54 log2 (difference from the parental peptide).

With chain 1 A7P, the enrichment was 1.84 log2 (difference from the parental peptide).

On to chain 1 A7M, for which the enrichment was 1.59 log2 (difference from the parental peptide).

For chain 1 A7L, the enrichment was -0.735 log2 (difference from the parental peptide).

With chain 1 A7D, the enrichment was 1.26 log2 (difference from the parental peptide).

For the variant chain 1 D4Y, the enrichment is -4.71 log2 (difference from the parental peptide).

chain 1 D4E: the enrichment was -1.08 log2 (difference from the parental peptide).

Turning to chain 1 D4L, the enrichment is -6.02 log2 (difference from the parental peptide).

On to chain 1 D4A, for which the enrichment was -8.08 log2 (difference from the parental peptide).

For chain 1 D4S, the enrichment was -6.14 log2 (difference from the parental peptide).

On to chain 1 D4V, for which the enrichment is -8.27 log2 (difference from the parental peptide).

Take chain 1 T12M: the enrichment is -0.275 log2 (difference from the parental peptide).

In the case of chain 1 T12Y, the enrichment was 2.35 log2 (difference from the parental peptide).

As to chain 1 T12L, the enrichment is 0.0229 log2 (difference from the parental peptide).

On to chain 1 T12V, for which the enrichment is -0.299 log2 (difference from the parental peptide).

As to chain 1 T12D, the enrichment is -6.65 log2 (difference from the parental peptide).

For chain 1 T12F, the enrichment was -1.02 log2 (difference from the parental peptide).

Consider chain 1 T12E, for which the enrichment was -7.95 log2 (difference from the parental peptide).

Turning to chain 1 T12Q, the enrichment is 0.207 log2 (difference from the parental peptide).

chain 1 T12I: the enrichment was -0.506 log2 (difference from the parental peptide).

With chain 1 F15R, the enrichment was 0.817 log2 (difference from the parental peptide).

With chain 1 F15D, the enrichment is -4.01 log2 (difference from the parental peptide).

Take chain 1 F15A: the enrichment was 1.19 log2 (difference from the parental peptide).

On to chain 1 F15I, for which the enrichment is -0.829 log2 (difference from the parental peptide).

On to chain 1 F15K, for which the enrichment is 0.708 log2 (difference from the parental peptide).

For the variant chain 1 F15M, the enrichment was 0.54 log2 (difference from the parental peptide).

With chain 1 F15Y, the enrichment is 1.03 log2 (difference from the parental peptide).

On to chain 1 F15C, for which the enrichment was -4.84 log2 (difference from the parental peptide).

Consider chain 1 F15E, for which the enrichment was -3.12 log2 (difference from the parental peptide).

For the variant chain 1 F15V, the enrichment was 0.452 log2 (difference from the parental peptide).

As to chain 1 F15P, the enrichment was -1.52 log2 (difference from the parental peptide).

For the variant chain 1 F15S, the enrichment is -0.181 log2 (difference from the parental peptide).

For chain 1 F15T, the enrichment is 0.636 log2 (difference from the parental peptide).

As for chain 1 E2K, the enrichment is -5.15 log2 (difference from the parental peptide).

As to chain 1 E2T, the enrichment was -3.84 log2 (difference from the parental peptide).

chain 1 E2Q: the enrichment was -3.9 log2 (difference from the parental peptide).

Consider chain 1 E2A, for which the enrichment is -2.53 log2 (difference from the parental peptide).

With chain 1 E2V, the enrichment is -2.63 log2 (difference from the parental peptide).

For chain 1 E2M, the enrichment was -2.95 log2 (difference from the parental peptide).

Consider chain 1 E2H, for which the enrichment is -3.64 log2 (difference from the parental peptide).

On to chain 1 E2D, for which the enrichment is 1.62 log2 (difference from the parental peptide).

With chain 1 E2W, the enrichment was -1.93 log2 (difference from the parental peptide).

Take chain 1 A9S: the enrichment was -2.79 log2 (difference from the parental peptide).

Regarding chain 1 A9R, the enrichment is 0.319 log2 (difference from the parental peptide).

For the variant chain 1 A9Y, the enrichment is -6.66 log2 (difference from the parental peptide).

Take chain 1 A9L: the enrichment was -6.75 log2 (difference from the parental peptide).

Take chain 1 A9H: the enrichment was -6.63 log2 (difference from the parental peptide).

For the variant chain 1 A9G, the enrichment was -7.69 log2 (difference from the parental peptide).

chain 1 A9M: the enrichment was -5.79 log2 (difference from the parental peptide).

For the variant chain 1 A9T, the enrichment is -3.93 log2 (difference from the parental peptide).

On to chain 1 A9E, for which the enrichment is -1.54 log2 (difference from the parental peptide).

For chain 1 Y5C, the enrichment is -5.08 log2 (difference from the parental peptide).

For the variant chain 1 Y5T, the enrichment is -6.08 log2 (difference from the parental peptide).

With chain 1 Y5W, the enrichment is 1.1 log2 (difference from the parental peptide).

As for chain 1 Y5H, the enrichment was -5 log2 (difference from the parental peptide).

chain 1 Y5I: the enrichment was -6.63 log2 (difference from the parental peptide).

As for chain 1 Y5E, the enrichment was -3.48 log2 (difference from the parental peptide).

For the variant chain 1 Y5F, the enrichment is -1.41 log2 (difference from the parental peptide).

On to chain 1 Y5V, for which the enrichment is -5.81 log2 (difference from the parental peptide).

Turning to chain 1 Y5A, the enrichment was -7.07 log2 (difference from the parental peptide).

For the variant chain 1 Y5N, the enrichment was -6.71 log2 (difference from the parental peptide).

Turning to chain 1 D3K, the enrichment was -5.36 log2 (difference from the parental peptide).

Regarding chain 1 D3V, the enrichment was -6.53 log2 (difference from the parental peptide).

For chain 1 D3T, the enrichment is -3.61 log2 (difference from the parental peptide).

Consider chain 1 D3S, for which the enrichment was -4.38 log2 (difference from the parental peptide).

For the variant chain 1 D3N, the enrichment was -3.54 log2 (difference from the parental peptide).

As to chain 1 D3A, the enrichment is -3.86 log2 (difference from the parental peptide).

For chain 1 D3I, the enrichment was -5.15 log2 (difference from the parental peptide).

As for chain 1 D3E, the enrichment is 1.1 log2 (difference from the parental peptide).

On to chain 1 D3M, for which the enrichment was -3.93 log2 (difference from the parental peptide).

For chain 1 D3P, the enrichment is -3.61 log2 (difference from the parental peptide).

In the case of chain 1 D3F, the enrichment was -5 log2 (difference from the parental peptide).

As to chain 1 D3Y, the enrichment was -3.98 log2 (difference from the parental peptide).

With chain 1 D3L, the enrichment was -5 log2 (difference from the parental peptide).

In the case of chain 1 T6N, the enrichment is 1.76 log2 (difference from the parental peptide).

Consider chain 1 T6S, for which the enrichment is 3.56 log2 (difference from the parental peptide).

As to chain 1 T6G, the enrichment is 3.08 log2 (difference from the parental peptide).

In the case of chain 1 T6C, the enrichment was -9.54 log2 (difference from the parental peptide).

Consider chain 1 T6M, for which the enrichment is -1.14 log2 (difference from the parental peptide).

Turning to chain 1 T6D, the enrichment was 3.79 log2 (difference from the parental peptide).

On to chain 1 T6I, for which the enrichment is -6.01 log2 (difference from the parental peptide).

For chain 1 T6Y, the enrichment was -1.26 log2 (difference from the parental peptide).

On to chain 1 T6E, for which the enrichment is 2.68 log2 (difference from the parental peptide).

As for chain 1 L11D, the enrichment is -5.76 log2 (difference from the parental peptide).

Regarding chain 1 L11K, the enrichment is 0.195 log2 (difference from the parental peptide).

Turning to chain 1 L11E, the enrichment is 0.55 log2 (difference from the parental peptide).

On to chain 1 L11N, for which the enrichment was -4.2 log2 (difference from the parental peptide).

As to chain 1 L11M, the enrichment was 2.52 log2 (difference from the parental peptide).

With chain 1 L11H, the enrichment is 2.09 log2 (difference from the parental peptide).

On to chain 1 T16V, for which the enrichment is -0.0944 log2 (difference from the parental peptide).

With chain 1 T16Y, the enrichment is -0.842 log2 (difference from the parental peptide).

With chain 1 T16S, the enrichment is 1.36 log2 (difference from the parental peptide).

Take chain 1 T16N: the enrichment is 0.543 log2 (difference from the parental peptide).

With chain 1 T16H, the enrichment is 0.765 log2 (difference from the parental peptide).

For chain 1 T16L, the enrichment was 0.694 log2 (difference from the parental peptide).

Turning to chain 1 T16I, the enrichment is 0.113 log2 (difference from the parental peptide).

For chain 1 T16G, the enrichment is 1.83 log2 (difference from the parental peptide).

Regarding chain 1 T16W, the enrichment is -0.731 log2 (difference from the parental peptide).

With chain 1 T16M, the enrichment is 0.731 log2 (difference from the parental peptide).

For chain 1 T16A, the enrichment is 1.77 log2 (difference from the parental peptide).

Take chain 1 T16Q: the enrichment is 1.11 log2 (difference from the parental peptide).

In the case of chain 1 T16E, the enrichment was 0.53 log2 (difference from the parental peptide).

For the variant chain 1 E1L, the enrichment is -1.9 log2 (difference from the parental peptide).

Turning to chain 1 E1Q, the enrichment was -0.35 log2 (difference from the parental peptide).

For chain 1 E1D, the enrichment is 2.17 log2 (difference from the parental peptide).

On to chain 1 E1R, for which the enrichment is -5.65 log2 (difference from the parental peptide).

On to chain 1 E1N, for which the enrichment is -1.54 log2 (difference from the parental peptide).

chain 1 E1S: the enrichment was -1.77 log2 (difference from the parental peptide).

Consider chain 1 E1H, for which the enrichment is -2.89 log2 (difference from the parental peptide).

Regarding chain 1 E1A, the enrichment is -1.32 log2 (difference from the parental peptide).

In the case of chain 1 E1K, the enrichment is -4.48 log2 (difference from the parental peptide).

Take chain 1 E1P: the enrichment was -2.84 log2 (difference from the parental peptide).

On to chain 1 E1V, for which the enrichment was -1.89 log2 (difference from the parental peptide).

As to chain 1 E1T, the enrichment was -2.09 log2 (difference from the parental peptide).

For the variant chain 1 E1I, the enrichment was -1.58 log2 (difference from the parental peptide).

Take chain 1 E1G: the enrichment was -1.59 log2 (difference from the parental peptide).

chain 1 E1W: the enrichment is -2.09 log2 (difference from the parental peptide).

On to chain 1 E1M, for which the enrichment was -0.805 log2 (difference from the parental peptide).

In the case of chain 1 P10F, the enrichment was -9.41 log2 (difference from the parental peptide).

Consider chain 1 P10L, for which the enrichment was -7.92 log2 (difference from the parental peptide).

On to chain 1 P10E, for which the enrichment was -6.9 log2 (difference from the parental peptide).

chain 1 P10Y: the enrichment is -6.98 log2 (difference from the parental peptide).

The values are drawn from publication PMC11969024 (2025).
